Target: major core protein A10 of vaccinia virus (gene product of A10) (vaccinia virus (VACV) strain Western Reserve (WR))
Experiment: cryo-EM structure

Substance: major core protein A10 of vaccinia virus (gene product of A10) (natural protein)
- stoichiometry N: 3

Reference: PMC11257942
